For two molecules, Kd, koff and kon results are on record in patent publication EP4803139A2.

For assay [1], the target named is human PCSK9 (proprotein convertase subtilisin/kexin type 9), wild type (human) (UniProt Q8NBP7). Description: BIAcore SPR, human PCSK9, pH 6.0. A general note: Surface plasmon resonance follows binding to a sensor surface in real time, without labels.
For assay [2] the target is unchanged. In words: BIAcore solution equilibrium assay, 21B12 immobilised on CM5, one-site fit in KinExA Pro.
Assay [3] shares this target. Description: BIAcore SPR, antibody amine-coupled to CM5, PCSK9 as analyte, pH 7.4.
The target is the same in assay [4]. In words: BIAcore SPR, human PCSK9, pH 7.4.
Assay [5] shares this target. In words: KinExA solution equilibrium, PCSK9-coated beads. On the technique in general: A kinetic exclusion assay measures how much of one partner remains free in solution.

The term Kd denotes the equilibrium constant for the complex coming apart. High values mean a looser complex, low ones a tighter complex. Usually koff stands for the rate constant with which the complex falls apart. By kon is commonly meant the second-order rate constant of association. A high value points to faster complex formation.

B1: 21B12, anti-PCSK9 huIgG4 (antibody, V domains shown)
VH: QVQLVQSGAEVKKPGASVKVSCKASGYTLTSYGISWVRQAPGQGLEWMGWVSFYNGNTNYAQKLQGRGTMTTDPSTSTAYMELRSLRSDDTAVYYCARGYGMDVWGQGTTVTVSS
VL: QSALTQPASVSGSPGQSITISCTGTSSDVGGYNSVSWYQQHPGKAPKLMIYEVSNRPSGVSNRFSGSKSGNTASLTISGLQAEDEADYYCNSYTSTSMVFGGGTKLTVLQ
For the molecule B1, the Kd in assay [1] is 0.0073 nM; in assay [2], 0.015 nM; in assay [3], 0.19 nM; in assay [4] it was 0.19 nM. Further, the figures for the koff in assay [1] and in assay [4] were 1.68e-05 s⁻¹ and 6.63e-06 s⁻¹, respectively. The kon worked out at 2.29e+06 M⁻¹ s⁻¹ in assay [1] and 34900 M⁻¹ s⁻¹ in assay [4].

B2: 16F12, anti-PCSK9 huIgG4 (antibody, V domains shown)
VH: QVHLVESGGGVVQPGRSLRLSCAASGFTFNSFGMHWVRQAPGKGLEWVALIWSDGSDEYYADSVKGRFTISRDNSKNTLYLQMNSLRAEDTAVYYCARAIAALYYYYGMDVWGQGTTVTVSS
VL: QSVLTQPPSVSAAPGQKVTISCSGSSSNIGNNFVSWYQQLPGTAPKLLIYDYNKRPSGIPDRFSGSKSGTSATLGITGLQTGDEADYYCGTWDSSLSAYVFGTGTRVTVLQ
For the molecule B2, the Kd was 0.029 nM in assay [1], 0.47 nM in assay [3], 0.015 nM in assay [5] and 0.47 nM in assay [4]. Also, the koff in assay [1] turned out to be 7.01e-05 s⁻¹; in assay [4], 4.98e-05 s⁻¹. For the same molecule, the kon in assay [1] was 2.39e+06 M⁻¹ s⁻¹; in assay [4], 106000 M⁻¹ s⁻¹.
